Assays:
[1] = target: T1, ARR10 (Arabidopsis, UniProt O49397 1-552, limits assumed); assay: yeast two-hybrid (LexA-KMD bait, B42-ARR prey, X-gal)
T1 construct: also called type-B response regulator ARR10
T1 sequence (looked up): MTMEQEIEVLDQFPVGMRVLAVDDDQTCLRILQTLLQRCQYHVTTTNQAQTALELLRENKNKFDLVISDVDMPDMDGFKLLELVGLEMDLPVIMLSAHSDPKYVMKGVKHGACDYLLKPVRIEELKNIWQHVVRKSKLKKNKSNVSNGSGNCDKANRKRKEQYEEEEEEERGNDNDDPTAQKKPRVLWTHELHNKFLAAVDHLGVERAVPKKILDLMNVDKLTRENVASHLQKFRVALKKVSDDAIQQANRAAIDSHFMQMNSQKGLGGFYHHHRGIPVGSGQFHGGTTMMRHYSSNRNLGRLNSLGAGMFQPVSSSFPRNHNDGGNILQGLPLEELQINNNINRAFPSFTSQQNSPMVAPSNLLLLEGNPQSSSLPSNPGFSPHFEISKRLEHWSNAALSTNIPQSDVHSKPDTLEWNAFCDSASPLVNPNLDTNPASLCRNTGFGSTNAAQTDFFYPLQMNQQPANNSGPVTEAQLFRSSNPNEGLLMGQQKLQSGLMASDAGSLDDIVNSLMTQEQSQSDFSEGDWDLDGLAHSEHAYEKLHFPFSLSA
In short: (§1)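 LexA DNA-binding-domain KMD bait fusions (pGilda) and B42 activation-domain type-B ARR prey fusions (pJG4-5) were co-transformed into yeast EGY48 carrying the lacZ reporter plasmid pSH18-34. Interaction was scored by colour on X-gal medium.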

[2] = target: T2, ARR20 (type-B ARR subfamily-3) (Arabidopsis, UniProt Q9LZJ8 1-426, limits assumed); assay: as above
T2 sequence (looked up): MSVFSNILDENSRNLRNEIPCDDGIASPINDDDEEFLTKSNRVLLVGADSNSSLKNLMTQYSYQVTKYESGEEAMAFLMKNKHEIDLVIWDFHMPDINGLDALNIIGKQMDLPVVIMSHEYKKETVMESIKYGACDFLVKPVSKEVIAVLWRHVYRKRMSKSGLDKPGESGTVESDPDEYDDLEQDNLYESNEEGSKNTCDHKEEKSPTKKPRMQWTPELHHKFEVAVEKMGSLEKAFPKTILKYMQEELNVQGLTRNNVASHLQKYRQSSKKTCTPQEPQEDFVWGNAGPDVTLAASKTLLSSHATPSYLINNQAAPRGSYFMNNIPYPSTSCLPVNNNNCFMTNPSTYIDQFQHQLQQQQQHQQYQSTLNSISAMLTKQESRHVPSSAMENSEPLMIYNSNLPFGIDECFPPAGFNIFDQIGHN
In short: as §1

[3] = target: T3, ARR12 (133-596) (Arabidopsis, UniProt P62598 133-596); assay: BiFC with ARR fragments
T3 construct: range 133-596; Fused to a YFP fragment for BiFC; also called C-terminal domain of ARR12
T3 sequence (looked up): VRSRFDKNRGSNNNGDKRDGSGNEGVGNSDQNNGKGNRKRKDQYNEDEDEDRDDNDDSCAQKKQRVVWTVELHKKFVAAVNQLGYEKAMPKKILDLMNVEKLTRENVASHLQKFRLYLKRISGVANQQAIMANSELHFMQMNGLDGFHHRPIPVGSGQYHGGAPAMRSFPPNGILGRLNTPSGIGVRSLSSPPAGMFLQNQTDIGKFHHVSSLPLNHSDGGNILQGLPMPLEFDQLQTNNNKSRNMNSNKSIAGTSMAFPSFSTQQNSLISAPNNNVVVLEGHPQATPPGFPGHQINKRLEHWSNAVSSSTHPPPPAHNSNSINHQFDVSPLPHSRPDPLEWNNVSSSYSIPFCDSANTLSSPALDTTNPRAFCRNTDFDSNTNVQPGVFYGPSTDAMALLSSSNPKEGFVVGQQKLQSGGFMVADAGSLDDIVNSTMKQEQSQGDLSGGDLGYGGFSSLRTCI

Binder | binding result [1] | binding result [2] | binding result [3]
KISS ME DEADLY 2 (KMD2) (other, Arabidopsis, UniProt Q9LMR5 1-359, looked up, Full-length protein; LexA fusion in yeast two-hybrid, YFP^N or YFP^C fusion in BiFC; also called At1g15670) MELIPDLPETVAYECLLRSSYKQFPLMASVCKLWQREISLSDFFRHRKASGHSQELVVLSQARVDPVKELVSGNKTIPTPVYRISVLELGTGLRSELPPVPGHSNGLPLFCRLVSVGSDLVVLCGLDPVTWRTSDSVFVFSFLTSTWRVGKSMPGGPRSFFACASDSQRNVFVAGGHDEDKNAMMSALVYDVAEDRWAFLPDMGRERDECTAIFHAGKFHVIGGYSTEEQGQFSKTAESFDVTTWRWSPQGEEFLSSEMTMWPPICAAGENGDLYACCRRDLMMMKDDTWYKVGNLPADVCNVSYVAIRRSGNLVVIGSARYGEPSVGYNWDMSNSRWLKLETHDKYEGHVQAGCFLEI | binds | binds | 
KISS ME DEADLY 1 (KMD1) (other, Arabidopsis, UniProt Q9M8L2 1-354, looked up, Full-length protein; also called At1g80440) MELIPNLPDDVARECLLRSSYQQFPVIASVCRAWNREVSLSQFLHQRKASRHSQELLILSQARVDPAGSGKIIATPEYRISVLESGSGLWTELPPIPGQTKGLPLFCRLVSVGSDLIVLGGLDPITWQAHDSVFVFSFLTSKWRVGATMPGVRRSFFGCASDSDRTVLVAGGHNEEKCALTSAMVYDVSEDKWTFLPDMARERDECKAVFHAGRFHVIGGYATEEQGQFSKTAESFDVSTWEWGPLTEDFLDDTGDTVSPPTCVAGGDLYACWGGDVMMFLNDKWQKVGQIPADVYNVTYVAVRPGMLIVIGNGKALAGYGEATVGYICDLSSSRWVKLETHGGHVQAGCFLEV | binds | binds | binds
